The values below come from patent publication US20040052816A1 (Pfizer, published 2004).

This data set concerns the molecule itself. The data set is described as follows: self-association: retained by a 100,000 MW cutoff membrane in diafiltration.

B1: recombinant 20 kDa surface associated protein from S. pneumoniae (Pneumo Protective Protein 1) (other)
chain: MNEVKKMVELKKEAVKDVTSLTKAAPVALAKTKEVLNQAVADLYVAHVALHQVHWYMHGRGFLVWHPKMDEYMEALDGQLDEISERLITLGGSPFSTLTEFLQNSEIEEEAGEYRNVEESLERVLVIYRYLSELFQKGLDVTDEEGDDVTNGIFAGAKTETDKTIWMLAAELGQAPGL
notes: also called r20 kDa; r20kDa
Take B1: the binding result is on record as “binds”.
